In article PMC4512625 (2015):
Ends that are not written are not given here.

Key:
[1] = target: human SPAK 452-547 with L491A (human, UniProt Q9UEW8 452-545, L491A); test: FP
[2] = target: human SPAK 452-547(end) (human, UniProt Q9UEW8 452-545); test: FP

Kd [1]: 88.2 µM
Kd [2]: 0.6 µM
B1: Lumio-Green-labelled RFXV-motif-possessing peptide derived from WNK4 (EP4543) (peptide)
peptide: CCPGCCGGGGSEEGKPQLVGRFQVTSSK
modifications: not fully specified (N-terminus); cysteine pairing not given here; also: Lumio Green fluorophore bound to the N-terminal CCPGCC linker
